# Substrate: N[C@@H](CC(=O)O)C(=O)O
# Test: Spectrophotometric aspartase assay, deamination of L-aspartic acid to fumarate (240 nm)
# Type: biochemical, Escherichia coli
# Settings: 30 mM Hepes pH 7.0, 10 mM magnesium acetate, 30° C.
# Description: Catalytic activity was determined spectrophotometrically by measuring the formation of fumarate at 240 nm (E240 =2.53 mM^-1 cm^-1) produced by the enzyme-catalyzed deamination of aspartic acid. A standard assay mix contained 30 mM Hepes buffer, pH 7.0, 10 mM magnesium acetate, and varying concentrations of L-aspartic acid at 30° C.
protein,measurement,setting,value
"E. coli aspartase truncated variant R471stop, residues 1-470 of SEQ ID NO: 1 (Escherichia coli K-12) (protein, made in house; host or cells: E. coli overproducing strain) MSNNIRIEEDLLGTREVPADAYYGVHTLRAIENFYISNNKISDIPEFVRGMVMVKKAAAMANKELQTIPKSVANAIIAACDEVLNNGKCMDQFPVDVYQGGAGTSVNMNTNEVLANIGLELMGHQKGEYQYLNPNDHVNKCQSTNDAYPTGFRIAVYSSLIKLVDAINQLREGFERKAVEFQDILKMGRTQLQDAVPMTLGQEFRAFSILLKEEVKNIQRTAELLLEVNLGATAIGTGLNTPKEYSPLAVKKLAEVTGFPCVPAEDLIEATSDCGAYVMVHGALKRLAVKMSKICNDLRLLSSGPRAGLNEINLPELQAGSSIMPAKVNPVVPEVVNQVCFKVIGNDTTVTMAAEAGQLQLNVMEPVIGQAMFESVHILTNACYNLLEKCINGITANKEVCEGYVYNSIGIVTYLNPFIGHHNGDIVGKICAETGKSVREVVLERGLLTEAELDDIFSVQNLMHPAYKAK",Km,other: R471stop,4.5 mM
same,kcat,other: R471stop,1.18 ± 0.0483 s⁻¹
same,kcat/Km,other: R471stop,262 M⁻¹ s⁻¹
"E. coli aspartase truncated variant D474stop, residues 1-473 of SEQ ID NO: 1 (Escherichia coli K-12) (protein, made in house; host or cells: E. coli overproducing strain) MSNNIRIEEDLLGTREVPADAYYGVHTLRAIENFYISNNKISDIPEFVRGMVMVKKAAAMANKELQTIPKSVANAIIAACDEVLNNGKCMDQFPVDVYQGGAGTSVNMNTNEVLANIGLELMGHQKGEYQYLNPNDHVNKCQSTNDAYPTGFRIAVYSSLIKLVDAINQLREGFERKAVEFQDILKMGRTQLQDAVPMTLGQEFRAFSILLKEEVKNIQRTAELLLEVNLGATAIGTGLNTPKEYSPLAVKKLAEVTGFPCVPAEDLIEATSDCGAYVMVHGALKRLAVKMSKICNDLRLLSSGPRAGLNEINLPELQAGSSIMPAKVNPVVPEVVNQVCFKVIGNDTTVTMAAEAGQLQLNVMEPVIGQAMFESVHILTNACYNLLEKCINGITANKEVCEGYVYNSIGIVTYLNPFIGHHNGDIVGKICAETGKSVREVVLERGLLTEAELDDIFSVQNLMHPAYKAKRYT",Km,other: D474stop,2.8 mM
same,kcat,other: D474stop,0.712 ± 0.127 s⁻¹
same,kcat/Km,other: D474stop,255 M⁻¹ s⁻¹
"E. coli aspartase (L-aspartate ammonia-lyase, E.C. 4.3.1.1), wild-type, SEQ ID NO: 1 (Escherichia coli K-12) (protein, made in house; host or cells: E. coli overproducing strain (aspA in pTZ18R)) MSNNIRIEEDLLGTREVPADAYYGVHTLRAIENFYISNNKISDIPEFVRGMVMVKKAAAMANKELQTIPKSVANAIIAACDEVLNNGKCMDQFPVDVYQGGAGTSVNMNTNEVLANIGLELMGHQKGEYQYLNPNDHVNKCQSTNDAYPTGFRIAVYSSLIKLVDAINQLREGFERKAVEFQDILKMGRTQLQDAVPMTLGQEFRAFSILLKEEVKNIQRTAELLLEVNLGATAIGTGLNTPKEYSPLAVKKLAEVTGFPCVPAEDLIEATSDCGAYVMVHGALKRLAVKMSKICNDLRLLSSGPRAGLNEINLPELQAGSSIMPAKVNPVVPEVVNQVCFKVIGNDTTVTMAAEAGQLQLNVMEPVIGQAMFESVHILTNACYNLLEKCINGITANKEVCEGYVYNSIGIVTYLNPFIGHHNGDIVGKICAETGKSVREVVLERGLLTEAELDDIFSVQNLMHPAYKAKRYTDESEQ",Km,other: wild-type,1.8 mM
"E. coli aspartase truncated variant A469stop, residues 1-468 of SEQ ID NO: 1 (Escherichia coli K-12) (protein, made in house; host or cells: E. coli overproducing strain) MSNNIRIEEDLLGTREVPADAYYGVHTLRAIENFYISNNKISDIPEFVRGMVMVKKAAAMANKELQTIPKSVANAIIAACDEVLNNGKCMDQFPVDVYQGGAGTSVNMNTNEVLANIGLELMGHQKGEYQYLNPNDHVNKCQSTNDAYPTGFRIAVYSSLIKLVDAINQLREGFERKAVEFQDILKMGRTQLQDAVPMTLGQEFRAFSILLKEEVKNIQRTAELLLEVNLGATAIGTGLNTPKEYSPLAVKKLAEVTGFPCVPAEDLIEATSDCGAYVMVHGALKRLAVKMSKICNDLRLLSSGPRAGLNEINLPELQAGSSIMPAKVNPVVPEVVNQVCFKVIGNDTTVTMAAEAGQLQLNVMEPVIGQAMFESVHILTNACYNLLEKCINGITANKEVCEGYVYNSIGIVTYLNPFIGHHNGDIVGKICAETGKSVREVVLERGLLTEAELDDIFSVQNLMHPAYK",Km,other: A469stop,10.2 mM
same,kcat,other: A469stop,0.66 ± 0.0167 s⁻¹
same,kcat/Km,other: A469stop,65 M⁻¹ s⁻¹
"E. coli aspartase truncated variant Y472stop, residues 1-471 of SEQ ID NO: 1 (Escherichia coli K-12) (protein, made in house; host or cells: E. coli overproducing strain) MSNNIRIEEDLLGTREVPADAYYGVHTLRAIENFYISNNKISDIPEFVRGMVMVKKAAAMANKELQTIPKSVANAIIAACDEVLNNGKCMDQFPVDVYQGGAGTSVNMNTNEVLANIGLELMGHQKGEYQYLNPNDHVNKCQSTNDAYPTGFRIAVYSSLIKLVDAINQLREGFERKAVEFQDILKMGRTQLQDAVPMTLGQEFRAFSILLKEEVKNIQRTAELLLEVNLGATAIGTGLNTPKEYSPLAVKKLAEVTGFPCVPAEDLIEATSDCGAYVMVHGALKRLAVKMSKICNDLRLLSSGPRAGLNEINLPELQAGSSIMPAKVNPVVPEVVNQVCFKVIGNDTTVTMAAEAGQLQLNVMEPVIGQAMFESVHILTNACYNLLEKCINGITANKEVCEGYVYNSIGIVTYLNPFIGHHNGDIVGKICAETGKSVREVVLERGLLTEAELDDIFSVQNLMHPAYKAKR",Km,other: Y472stop,3.3 mM
same,kcat,other: Y472stop,1.62 ± 0.102 s⁻¹
same,kcat/Km,other: Y472stop,492 M⁻¹ s⁻¹
"E. coli aspartase truncated variant Y467stop (stop codon at position 467) (Escherichia coli K-12; E32V) (protein, made in house; host or cells: E. coli (aspA in pTZ18R)) MSNNIRIEEDLLGTREVPADAYYGVHTLRAIVNFYISNNKISDIPEFVRGMVMVKKAAAMANKELQTIPKSVANAIIAACDEVLNNGKCMDQFPVDVYQGGAGTSVNMNTNEVLANIGLELMGHQKGEYQYLNPNDHVNKCQSTNDAYPTGFRIAVYSSLIKLVDAINQLREGFERKAVEFQDILKMGRTQLQDAVPMTLGQEFRAFSILLKEEVKNIQRTAELLLEVNLGATAIGTGLNTPKEYSPLAVKKLAEVTGFPCVPAEDLIEATSDCGAYVMVHGALKRLAVKMSKICNDLRLLSSGPRAGLNEINLPELQAGSSIMPAKVNPVVPEVVNQVCFKVIGNDTTVTMAAEAGQLQLNVMEPVIGQAMFESVHILTNACYNLLEKCINGITANKEVCEGYVYNSIGIVTYLNPFIGHHNGDIVGKICAETGKSVREVVLERGLLTEAELDDIFSVQNLMHPA",Km,other: Y467stop,31 mM
same,kcat,other: Y467stop,0.0417 ± 0.013 s⁻¹
same,kcat/Km,other: Y467stop,1.33 M⁻¹ s⁻¹

# Source: patent US6133013A, “Truncated aspartase enzyme derivatives and uses thereof” (The University of Akron, priority 1999, dated 2000)
